In one assay the target is T1, B7-H4 (UniProt Q7Z7D3 25-258, limits assumed).
T1 sequence (looked up): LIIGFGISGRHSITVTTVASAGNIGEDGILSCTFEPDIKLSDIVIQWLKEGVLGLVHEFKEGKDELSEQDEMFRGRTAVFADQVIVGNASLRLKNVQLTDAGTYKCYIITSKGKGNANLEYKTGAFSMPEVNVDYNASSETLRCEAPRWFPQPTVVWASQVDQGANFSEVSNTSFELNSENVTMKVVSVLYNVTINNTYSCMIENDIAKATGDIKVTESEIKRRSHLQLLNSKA
Kind of assay: indirect ELISA, B7-H4 coated at 1 ug/mL, absorbance at 450 nm. The protocol:
[The procedure below names another target; the source lists this target under the same test.] The binding ability of 2D IgG prepared in Example 2 for recombinant B7-H3 protein was investigated by indirect ELISA. For indirect ELISA, recombinant human 4lg B7-H3, recombinant human 2lg B7-H3 and recombinant mouse B7-H3 were diluted respectively to 1 μg/mL in 50 μL of PBS and adsorbed overnight onto a 96-well immunoplate (Corning, USA) by storing at 4° C. After reaction with a buffer solution containing 3% bovine serum albumin at room temperature for 1 hour, followed by washing 3 times with a buffer solution containing 0.5% Tween 20, each well was treated with 50 μL of the antibodies diluted serially (0.0001, 0.0003, 0.001, 0.003, 0.01, 0.03, 0.1, 0.3, 1, 3 and 10 nM). For antigen-antibody binding, the mixture was reacted at room temperature for 2 hours, and then washed 3 times with a buffer solution containing 0.5% Tween 20. After treating each well with 50 μL of anti-human immunoglobulin Fc-HRP antibodies (Jackson Immunoresearch, USA) diluted to 1:3,000, reaction was conducted at room temperature for 1 hour. […] As a result of measuring absorbance at 450 nm using a spectrophotometer (Biotek, USA), it was confirmed that 2D IgG binds to B7-H3, and the binding ability was in the order of 4lg B7-H3, 2lg B7-H3 and mouse B7-H3 (FIG. 2a). […]
(In general: ELISA stands for enzyme-linked immunosorbent assay.)

Assay [1] deals with mouse B7-H3 expressed on Raji cells (mouse) (UniProt Q8VE98). Description: flow cytometry on Raji cells expressing mouse B7-H3; the vector control Raji cells show < 10%. (In general: In flow cytometry, cells or beads pass a laser one at a time.)
Assay [2] concerns the target human 2Ig B7-H3 expressed on Raji cells (human) (UniProt Q5ZPR3). Description: flow cytometry on Raji cells expressing 2Ig B7-H3; the vector control Raji cells show < 2%.
The target of a further assay is T2, RSPTGAVEVQVPEDP
T2 construct: 15-mer of human 4Ig B7-H3 on the peptide microarray, panel Ig-like-V type 2
T2 peptide: RSPTGAVEVQVPEDP
Kind of assay: peptide microarray, 15-mers of human 4Ig B7-H3; panel Ig-like-V type 2. The procedure: (§1) It was confirmed that G2D IgG has linear epitopes since G2D was verified to recognize 4lg B7-H3 through western blot (FIG. 10a). Therefore, linear epitope mapping was conducted by Pepperprint GmbH (Germany). After preparing a peptide microarray from the 15 4lg B7-H3 amino acids with 14-amino acid overlaps, the antibodies binding to peptides were identified using secondary antibodies (FIG. 10b). As a result, it was confirmed that G2D IgG binds to a peptide having a sequence of EVQVP (FIG. 10c). EVQVP is located in the Ig-like V-type1 and Ig-like V-type2 domains of 4lg B7-H3 (FIGS. 10d and 10e). When the epitopes of the control antibody enoblituzumab were identified by the same method, it was confirmed that the epitopes include the sequence of GYPEAE (FIG. 10b), and GYPEAE is located in the Ig-like C2-type1 and Ig-like C2-type2 domains of 4lg B7-H3 (FIGS. 10d and 10e). As a result, it was confirmed that G2D IgG and the control antibody enoblituzumab have different epitopes.

Assay [3] deals with B7-H3 on human cancer cells (human) (UniProt Q5ZPR3). Description: flow cytometry on HepG2K liver cancer cells; control (secondary antibody only) < 20%.
Assay [4] shares this target. Description: flow cytometry on HepG2 liver cancer cells; control (secondary antibody only) < 10%.
Assay [5] shares this target. Description: flow cytometry on HT29 colorectal cancer cells; control (secondary antibody only) < 15%.
Assay [6] has the same target. Description: flow cytometry on PC-3 prostate cancer cells; control (secondary antibody only) < 20%.
The next assay concerns the target T3, TGALEVQVPEDPVVA
T3 construct: 15-mer of human 4Ig B7-H3 on the peptide microarray, panel Ig-like-V type 1
T3 peptide: TGALEVQVPEDPVVA
Kind of assay: peptide microarray, 15-mers of human 4Ig B7-H3; panel Ig-like-V type 1. The procedure:
as §1

For a further assay, the target named is T4, ALWFCLTGALEVQVP
T4 construct: 15-mer of human 4Ig B7-H3 on the peptide microarray, panel Ig-like-V type 1
T4 peptide: ALWFCLTGALEVQVP
The assay is described as above. The procedure: as §1

The target in a further assay is T5, LEVQVPEDPVVALVG
T5 construct: 15-mer of human 4Ig B7-H3 on the peptide microarray, panel Ig-like-V type 1
T5 peptide: LEVQVPEDPVVALVG
Described as above. The protocol:
as §1

Another assay deals with T6, CLTGALEVQVPEDPV
T6 construct: 15-mer of human 4Ig B7-H3 on the peptide microarray, panel Ig-like-V type 1
T6 peptide: CLTGALEVQVPEDPV
Described as above. The protocol:
as §1

The target of assay [7] is B7-H3 on human cancer cells (human) (UniProt Q5ZPR3). Description: flow cytometry on SK-BR-3 breast cancer cells; control (secondary antibody only) < 5%.
Assay [8] shares this target. Kind of assay: flow cytometry on U251 brain tumor cells; control (secondary antibody only) < 10%.
The target is the same in assay [9]. Kind of assay: flow cytometry on Panc-1 pancreatic cancer cells; control (secondary antibody only) < 15%.

Sequence of mouse B7-H3 expressed on Raji cells (mouse) (Q8VE98 other isoform, or with tags, fused parts or gaps, form in doubt): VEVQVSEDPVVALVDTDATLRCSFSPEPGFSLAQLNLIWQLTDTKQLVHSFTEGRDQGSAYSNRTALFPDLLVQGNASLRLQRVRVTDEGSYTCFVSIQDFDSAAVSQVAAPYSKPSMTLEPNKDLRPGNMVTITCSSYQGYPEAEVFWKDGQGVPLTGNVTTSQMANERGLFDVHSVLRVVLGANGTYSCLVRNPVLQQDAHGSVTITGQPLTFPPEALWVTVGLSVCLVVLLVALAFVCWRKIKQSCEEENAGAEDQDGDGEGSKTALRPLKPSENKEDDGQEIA
Sequence of human 2Ig B7-H3 expressed on Raji cells (human) (Q5ZPR3 other isoform, or with tags, fused parts or gaps, form in doubt): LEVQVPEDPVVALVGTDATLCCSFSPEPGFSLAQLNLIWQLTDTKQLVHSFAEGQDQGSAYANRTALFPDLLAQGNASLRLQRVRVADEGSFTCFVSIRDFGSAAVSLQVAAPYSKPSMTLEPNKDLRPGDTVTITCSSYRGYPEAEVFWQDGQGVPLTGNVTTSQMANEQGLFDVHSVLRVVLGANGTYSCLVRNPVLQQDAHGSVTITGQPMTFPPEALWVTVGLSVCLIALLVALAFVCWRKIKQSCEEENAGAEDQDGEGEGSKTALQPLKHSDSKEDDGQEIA

B1: G2D IgG (antibody, V domains shown)
VH: QVQLVESGGGLVQPGGSLRLSCSASGFDFSSYPMVWVRQAPGKGLEYVSSINSGGSWTGYGAAVKGRATISRDNSKNTLYLQMNSLRAEDTATYYCARAYGAATIDAWGQGTTVTVSS
VL: SYELTQPPSVSVSPGQTARITCSGGSIGYGWYQQKAPGQAPVTVIYYNDRRPSGIPERFSGSKSGTTNTLTISGVQAEDEADYYCGSADSSSTYTGIFGGGTKLTVL
notes: The back-substitutions (L46T, S66K, V71N in VL); also called humanized 2D; G2D antibody
Regarding B1, in the assay with B7-H4, the binding result was “no binding (tested: 10 nM)”. The % of cells in the positive gate (P5) in assay [1] was more than 95%. Moreover, in assay [2], the % of cells in the positive gate (P3) was more than 40%. Also, the “fluorescence intensity of the peptide spot” value was determined as 120 in the assay with RSPTGAVEVQVPEDP; 21 in the assay with TGALEVQVPEDPVVA; 122 in the assay with ALWFCLTGALEVQVP; 30.5 with LEVQVPEDPVVALVG; 138 in the assay with CLTGALEVQVPEDPV. The % of cells in the positive gate in assay [3] was more than 95%; in [4] it was more than 95%; in assay [5], more than 95%; in assay [6] it was more than 95%; in assay [7], more than 35%; in [8], more than 95%. Besides, the % of cells in the positive gate in [9] is more than 95%.

The values above are taken from patent US20260201038A1 (CELLABMED, published 2026).
